Reference: the RNAGym collection of RNA variant scans (doi:10.1073/pnas.2313332121)
Variants at the floor of the assay were thinned out.

B1: TPR 5TU (parent)
chain: GGAUCUUCUCGAUCUAACAAAAAAGACAAAUCUGCCACAAAGCUUGAGAGCAUCUUCGGAUGCAGAGGCGGCAGCCUUCGGUGGCGCGAUAGCGCCAACGUUCUCAACUAUGACACGCAAAACGCGUGCUCCGUUGAAUGGAGUUUAUCAUG

Variants of: B1
Experiment: polymerase ribozyme fitness, log enrichment relative to wild type (log ratio); higher = more active; in vitro selection for triplet polymerase activity
Procedure, shortened: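 Each subunit of a heterodimeric triplet polymerase ribozyme was mutagenized into a library by PCR, transcribed, and subjected to one round of in vitro selection, run in triplicate. Libraries were annealed with a biotinylated primer, the partner subunit and triplets, incubated frozen at −7 °C, and extended constructs were gel-excised, captured on streptavidin beads and recovered by RT-PCR. Input and output libraries were sequenced on Illumina, keeping genotypes with ≥10 input reads and ≥1 read per output. Fitness is log base 2 of genotype enrichment divided by wild-type enrichment, from inverse-variance-weighted replicate averages.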

Variant	polymerase ribozyme fitness (log ratio)
A47U U55C G58C	-0.823
C51U U56G C75U U134C	-2.81
A60U C93U C125U	-2.48
G81A C93A	-2.37
A47G U82A A89C C93U	-1.39
C35U U55G A60C A91U A119G A121U C149G	≤ -4.2
G34A U55G	-0.61
U13G G84A	-0.636
A3C U33C U44A U56G C85G	≤ -4.2
A41C C57A G92A C93A C105U A115C G124A U144A	≤ -4.2
U45C A49C G70C G83C A137C U144C C149U	≤ -4.2
A41C U53A C79A C108U A147C	≤ -4.2
A29U G58A C85G A138C	≤ -4.2
A12U C76G C99U C132G	≤ -4.2
A19G C27U G59U G94C	-2.46
C43G A52U A142C U144A	≤ -4.2
A19C A49C A60G U101G G141A	-2.8
C85G C87U U145G	-3.08
C54A G58U C99A U145A	-2.04
G42U C85G G86C U90G	≤ -4.2
G59A U82G G117U	0.479

Variant	polymerase ribozyme fitness (log ratio)
C18G U55A C85G	-2.84
A89G A120C	-1.41
G67U U146A	-2.89
U44G U56A	-3.19
C57U A142U	0.471
A19U A21C A120C	-1.83
U9G G42C G58C C95U	≤ -4.2
G58A G83U A98U C103U	-1.15
C35U C105G G126A	-2.32
U15G C54G G81A C95U	-2.2
C54A U61A A73G U77G G100A	≤ -4.2
A12U U55C A137C	-4.12
U53A A110G	-3.7
U7A A64U G74A C79A C85A G94U U130G	≤ -4.2
A142U U144C	-3.6
C36A U82C C93U U135G	≤ -4.2
A147C U148A	-3.81
A16C C35G A66C G71A U82C C87A	≤ -4.2
C54A C87U C93G U134G U135A	≤ -4.2
A64U C103G U134G G141C	≤ -4.2
U4A C76A C93A A115G G124C C149U	≤ -4.2

Variant	polymerase ribozyme fitness (log ratio)
C8U C38G A60C A107G G141C U151C	≤ -4.2
G83A G140C	-3.99
C95A U144G	0.303
A47U G94A	-0.308
A29G A49G C51U G70A A107U	≤ -4.2
A16G A21U A97G	-1.74
G50C A52C G128A	≤ -4.2
A21U A22U G46A G48C U56A G70C G83U G124A	≤ -4.2
A28C C87A A107C	≤ -4.2
U61A A64C G68U G86C	≤ -4.2
U4C U53A A121C U144C	-1.34
U15A A17U G65U	≤ -4.2
U44A C103G A115U	≤ -4.2
C10A G25A A29U A89C G92U C108U A113U G117C	≤ -4.2
A52G G59C A60C C96G G126A A142U	≤ -4.2
A23C A41C C85A U90G G124U U135G	≤ -4.2
A40C A89U A137C	-3.94
U109C	-2.81
C93U C105G	-3.36
U13A C32A G42A C75A C76U C87G A106C A138U G141C	≤ -4.2
A64U C79U C87A A137G	≤ -4.2

Variant	polymerase ribozyme fitness (log ratio)
A12C A30C A60G C75G G86U U90G A97C	≤ -4.2
C38G A41U C93G A110C	≤ -4.2
G58C C118U U135C U145A	-1.79
C51A A60G G124U	-1.75
A24C G141C	-3.54
G94U A98U G141A	0.104
C54U U55A A120G G143U	-2.38
U55C C57A A73G C96U A121C C131U	1.56
U45G A49C C63G G84A G141C	≤ -4.2
U7G U55C C99U	≤ -4.2
U55A G92U C96A G117A A121U	-1.48
C8A A41U C76U A98G C116G G143C	≤ -4.2
C63A U102C A142G	-2.31
A52C C69A C105U	-3.13
A91U U111G U151G	≤ -4.2
U127A U144C	-3.74
C57A A60C C96U C132A	-3.83
U9A A40U G59U U134A	≤ -4.2
C96U C99A	-1.51
A49U G94A A119C	-1.28
A40G G59A U78A G94A C108U	≤ -4.2
